For experiment [1], the target named is human FcγRIIIa type V extracellular domain with C-terminal His tag (human, UniProt P08637 17-208). Nature of the experiment: SPR.
Target sequence in this assay (P08637 17-208 F176V): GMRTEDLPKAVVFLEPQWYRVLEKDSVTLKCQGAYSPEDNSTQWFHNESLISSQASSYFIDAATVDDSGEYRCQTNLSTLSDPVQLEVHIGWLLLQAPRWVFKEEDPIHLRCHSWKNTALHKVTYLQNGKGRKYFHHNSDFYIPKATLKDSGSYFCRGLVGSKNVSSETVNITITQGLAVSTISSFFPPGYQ
Experiment [2] concerns the target T1, human FcγRIIb extracellular domain with C-terminal His tag (human, UniProt P31994 43-217).
T1 sequence (looked up): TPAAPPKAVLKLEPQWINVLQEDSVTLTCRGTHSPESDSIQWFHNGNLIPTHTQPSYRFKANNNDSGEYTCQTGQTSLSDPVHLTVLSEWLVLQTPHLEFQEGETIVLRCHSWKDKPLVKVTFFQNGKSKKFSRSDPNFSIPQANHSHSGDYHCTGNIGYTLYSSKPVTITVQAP
In words: SPR. On the technique in general: In SPR one partner is held on a chip, and binding of the other changes the refractive index at the surface.

Experiment [3] deals with T1, human FcγRIIb extracellular domain with …. In words: SPR. This is another data set of the same source.
Experiment [4] shares this target. Nature of the experiment: SPR. This is another data set of the same source.
The target in experiment [5] is T2, human FcγRIIa type R extracellular domain with C-terminal His tag (human, UniProt P12318 34-217).
T2 sequence (looked up): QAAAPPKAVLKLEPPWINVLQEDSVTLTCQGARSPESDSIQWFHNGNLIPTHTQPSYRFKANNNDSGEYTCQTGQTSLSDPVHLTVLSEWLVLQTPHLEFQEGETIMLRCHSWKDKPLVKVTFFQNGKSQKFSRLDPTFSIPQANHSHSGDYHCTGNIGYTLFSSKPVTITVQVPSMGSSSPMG
In words: SPR Biacore, kinetic fit.

In experiment [6] the target is T3, human FcγRIIb extracellular domain with C-terminal His tag (human, UniProt P31994 43-217).
T3 sequence (looked up): T1 sequence (looked up)
Nature of the experiment: SPR Biacore, ratio of KDs.

The target in experiment [7] is T4, human FcγRIIIa type V extracellular domain with C-terminal His tag (human, UniProt P08637 17-208). In words: SPR. This is another data set of the same source.
T4 sequence (P08637 17-208 F176V): as the sequence (P08637 17-208 F176V) above
Experiment [8] addresses T5, human FcγRIIa type H extracellular domain with C-terminal His tag (human, UniProt P12318 34-217).
T5 sequence (looked up): T2 sequence (looked up) with R134H
Nature of the experiment: SPR.

In experiment [9] the target is T6, human FcγRIIa type R extracellular domain with C-terminal His tag (human, UniProt P12318 34-217).
T6 sequence (looked up): T2 sequence (looked up)
In words: SPR.

Experiment [10] has as its target T7, human FcγRIIa type R (131Arg) extracellular domain with C-terminal His tag (human, UniProt P12318 34-217).
T7 sequence (looked up): T2 sequence (looked up)
In words: SPR.

For experiment [11], the target named is T8, human FcγRIIa type H (131His) extracellular domain with C-terminal His tag (human, UniProt P12318 34-217).
T8 sequence (looked up): T2 sequence (looked up) with R134H
In words: SPR.

Experiment [12] addresses T7, human FcγRIIa type R (131Arg) …. In words: ratio of SPR KDs.
Experiment [13] deals with T4, human FcγRIIIa type V extracellular …. Nature of the experiment: SPR. This is another data set of the same source.
Experiment [14] addresses T1, human FcγRIIb extracellular domain with …. Nature of the experiment: SPR. The source holds these as a separate data set.
Experiment [15] deals with T9, human FcγRIIa type H extracellular domain with C-terminal His tag (human, UniProt P12318 34-217).
T9 sequence (looked up): T2 sequence (looked up) with R134H
Nature of the experiment: SPR. The source holds these as a separate data set.

Experiment [16] deals with human FcγRIa extracellular domain with C-terminal His tag (human, UniProt P12314 16-292). In words: SPR.
Target sequence in this assay (P12314 16-292): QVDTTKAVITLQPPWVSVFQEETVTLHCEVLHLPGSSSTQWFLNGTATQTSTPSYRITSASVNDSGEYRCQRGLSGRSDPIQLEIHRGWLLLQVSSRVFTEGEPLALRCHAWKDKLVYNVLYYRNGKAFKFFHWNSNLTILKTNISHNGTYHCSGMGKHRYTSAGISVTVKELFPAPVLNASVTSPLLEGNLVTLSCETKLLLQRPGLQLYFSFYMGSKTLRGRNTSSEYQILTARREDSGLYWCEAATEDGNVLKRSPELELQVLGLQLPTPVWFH
For experiment [17], the target named is T10, human FcγRIIa type H extracellular domain with C-terminal His tag (human, UniProt P12318 34-217).
T10 sequence (looked up): T2 sequence (looked up) with R134H
In words: SPR Biacore, KD by Equation 2.

In experiment [18] the target is T11, human FcγRIIb extracellular domain with C-terminal His tag (human, UniProt P31994 43-217).
T11 sequence (looked up): T1 sequence (looked up)
In words: ratio of SPR KD values.

Experiment [19] addresses human FcγRIa extracellular domain with C-terminal His tag (human, UniProt P12314 16-292). In words: SPR. This is another data set of the same source.
Target sequence in this assay (P12314 16-292): as above
Experiment [20] addresses T11, human FcγRIIb extracellular domain with …. In words: SPR. This is another data set of the same source.
Experiment [21] has as its target T12, human FcγRIIa type H extracellular domain with C-terminal His tag (human, UniProt P12318 34-217).
T12 sequence (looked up): T2 sequence (looked up) with R134H
Nature of the experiment: SPR. This is another data set of the same source.

In experiment [22] the target is human FcγRIIIa type V extracellular domain with C-terminal His tag (human, UniProt P08637 17-208). In words: SPR. The source holds these as a separate data set.
Target sequence in this assay (P08637 17-208 F176V): as the sequence (P08637 17-208 F176V) above
Experiment [23] deals with T13, human FcγRIIa type R extracellular domain with C-terminal His tag (human, UniProt P12318 34-217).
T13 sequence (looked up): T2 sequence (looked up)
In words: SPR. This is another data set of the same source.

In general, Kd refers to the constant that tells how readily two partners part at equilibrium.

Changes are numbered by the printed parent chain. Where two headings read alike, the source gives them in different places.

B1: IL6R-BP133/IL6R-L (antibody, human IgG1, kappa)
heavy: QVQLQESGPGLVKPSETLSLTCAVSGHSISHDHAWSWVRQPPGEGLEWIGFISYSGITNYNPSLQGRVTISRDNSKNTLYLQMNSLRAEDTAVYYCARSLARTTAMDYWGEGTLVTVSSASTKGPSVFPLAPSSKSTSGGTAALGCLVKDYFPEPVTVSWNSGALTSGVHTFPAVLQSSGLYSLSSVVTVPSSSLGTQTYICNVNHKPSNTKVDKKVEPKSCDKTHTCPPCPAPDYLGGDSVFLFPPKPKDTLMISRTPEVTCVVVDVSHEDPEVKFNWYVDGVEVHNAKTKPREEQYNSTYRVVSVLTVLHQDWLNGKEYKCKVSNKALPKPIEKTISKAKGQPREPQVYTLPPSRDELTKNQVSLTCLVKGFYPSDIAVEWESNGQPENNYKTTPPVLDSDGSFFLYSKLTVDKSRWQQGNVFSCSVMHEALHNHYTQESLSLSP
light: not shown
In turn, B1 showed a dissociation constant Kd in [1] of 69000 nM.

B2: IL6R-BP538/IL6R-L (antibody, human IgG1, kappa)
heavy: B1 heavy with D235E, Y236L, G239D, V266I, H270E, P273G, K332R
light: not shown
Regarding B2, in experiment [2], the “KD (IIb) of parent polypeptide/KD (IIb) of altered polypeptide” value was 507. Moreover, the “KD (IIaH)/KD (IIb)” value in experiment [3] was found to be 566. For the same molecule, the “KD (IIaR)/KD (IIb)” value in experiment [4] worked out at 30.6.

B3: IL6R-BP119/IL6R-L (antibody, human IgG1, kappa)
heavy: B1 heavy with D235E, Y236L, K328M, K332A
light: not shown
In the case of B3, binding in [5] was characterised by a dissociation constant (Kd) of 99 nM. Moreover, the “KD (IIb) of the parent polypeptide/KD (IIb) of the altered polypeptide” value (from here on “KD (IIb) of the parent polypeptide/KD”) in [6] was 2.7 fold (parent IL6R-B3/IL6R-L).

B4: IL6R-BP253/IL6R-L (antibody, human IgG1, kappa)
heavy: B1 heavy with D235E, Y236L, D240P, S269E, L330F, K332A
light: not shown
Molecule B4 had a Kd in experiment [7] of 3800 nM.

B5: IL6R-BP540/IL6R-L (antibody, human IgG1, kappa)
heavy: B1 heavy with D235E, Y236L, G239D, V266I, H270E, P273G, E274P, Y298D, K332R
light: not shown
With B5, binding in experiment [8] was put at a Kd of 4800 nM. In experiment [3], the “KD (IIaH)/KD (IIb)” value came to 803. In addition, the “KD (IIaR)/KD (IIb)” value in experiment [4] came out at 36.8.

B6: IL6R-BP559/IL6R-L (antibody, human IgG1, kappa)
heavy: B1 heavy with D235E, Y236L, V266I, S269A, H270E, P273G, E274D, Y298D, K332A
light: not shown
For B6, the Kd in experiment [9] came to 16 nM. The “KD (IIaH)/KD (IIb)” value in experiment [3] was 712. Moreover, the “KD (IIaR)/KD (IIb)” value in experiment [4] was 58.4.

B7: IL6R-BP497/IL6R-L (antibody, human IgG1, kappa)
heavy: B1 heavy with Y236L, G239D, V266I, S269A, H270E, P273G, A329G, K332R
light: not shown
Regarding B7, the Kd in [10] is 35 nM; in experiment [11], 850 nM; in experiment [13], 20000 nM. Moreover, the “KD (IIaR) of parent polypeptide/KD (IIaR) of altered polypeptide” value in [12] amounted to 12.9.

B8: BP505 (antibody, human IgG1, kappa)
heavy: B1 heavy with Y236L, G239D, V266I, S269A, H270E, P273G, E274D, K332A
light: not shown
Turning to B8, binding in [14] was put at a Kd of 2100 nM. Besides, in experiment [3], the “KD (IIaH)/KD (IIb)” value amounted to 514. Further, in experiment [4], the “KD (IIaR)/KD (IIb)” value came to 20.

B9: IL6R-BP179/IL6R-L (antibody, human IgG1, kappa)
heavy: B1 heavy with D235E, Y236L, G239D, P273G, K328A
light: not shown
For B9, the Kd in experiment [15] came out at 18000 nM.

B10: IL6R-BP269/IL6R-L (antibody, human IgG1, kappa)
heavy: B1 heavy with D235E, Y236L, G239D, H270E, P273G, Y298D, K332A
light: not shown
The molecule B10 had a Kd in experiment [16] of 1400 nM. This counts as single-digit micromolar.

B11: IL6R-BP266/IL6R-L (antibody, human IgG1, kappa)
heavy: B1 heavy with Y236L, G239D, H270E, P273G, K332R
light: not shown
B11 came in with a Kd in experiment [16] of 1400 nM. That is a single-digit micromolar value.

B12: IL6R-BP120/IL6R-L (antibody, human IgG1, kappa)
heavy: B1 heavy with D235E, Y236L, K328E, K332A
light: not shown
In the case of B12, in experiment [5], binding was put at a Kd of 5600 nM. Moreover, the “KD (IIb) of the parent polypeptide/KD” value in [6] was 3 fold (parent IL6R-B3/IL6R-L).

B13: IL6R-BP107/IL6R-L (antibody, human IgG1, kappa)
heavy: B1 heavy with D235E, Y236L, H270E, K332A
light: not shown
In the case of B13, the “KD (IIb) of the parent polypeptide/KD” value in experiment [6] was 3.3 fold (parent IL6R-B3/IL6R-L). Binding in [17] was characterised by a dissociation constant (Kd) of 32000 nM.

B14: IL6R-BP181/IL6R-L (antibody, human IgG1, kappa)
heavy: B1 heavy with Y236L, P273G, K328A
light: not shown
In experiment [15], B14 yielded a Kd of 28000 nM.

B15: BP564 (antibody, human IgG1, kappa)
heavy: B1 heavy with D235E, Y236L, G239D, H270E, P273G, E274D, Y298D, K332R
light: not shown
On to B15, for which the affinity in experiment [14], expressed as Kd, was 2.2 nM. Moreover, the “KD (IIaH)/KD (IIb)” value in [3] turned out to be 454. Further, the “KD (IIaR)/KD (IIb)” value in [4] is 26.2.

B16: IL6R-BP199/IL6R-L (antibody, human IgG1, kappa)
heavy: B1 heavy with Y236L, K328A, K332R
light: not shown
On to B16, for which, in experiment [18], the “KD (IIb) of the parent polypeptide/KD” value is 6.3 fold. Also, the Kd in experiment [19] was found to be 6.4 nM; in experiment [20] it was 490 nM; in experiment [21], 28000 nM; in experiment [22] it was 61000 nM.

B17: IL6R-BP198/IL6R-L (antibody, human IgG1, kappa)
heavy: B1 heavy with H270D, P273G, K328A
light: not shown
As to B17, the “KD (IIb) of the parent polypeptide/KD” value in [18] turned out to be 15.7 fold.

B18: IL6R-BP176/IL6R-L (antibody, human IgG1, kappa)
heavy: B1 heavy with Y236L, K328D
light: not shown
For B18, binding in experiment [1] was characterised by a dissociation constant (Kd) of 54 nM.

B19: IL6R-BP192/IL6R-L (antibody, human IgG1, kappa)
heavy: B1 heavy with Y236L, H270D, P273G, Y298D
light: not shown
Regarding B19, the Kd in [19] stood at 6.5 nM; in experiment [23], 2500 nM.

B20: IL6R-2B171/IL6R-L (antibody, human IgG1, kappa)
heavy: B1 heavy with D235E, Y236L, V325L, K332A
light: not shown
For B20, the “KD (IIb) of the parent polypeptide/KD” value in experiment [6] is 2.9 fold (parent IL6R-B3/IL6R-L). The same molecule yielded a dissociation constant Kd in experiment [17] of 340000 nM.

The record behind these values is patent publication US20230140797A1 (published 2023).
